PMC4769881 (Molecular cell, 2016)

Molecular target: the molecule itself
Experiment: AUC

B1: NBB182 (human MLKL N-terminal helix bundle and whole brace, to residue 182), tagless purified protein (domain or fragment, UniProt Q8NB16 1-182, looked up)
chain: MENLKHIITLGQVIHKRCEEMKYCKKQCRRLGHRVLGLIKPLEMLQDQGKRSVPSEKLTTAMNRFKAALEEANGEIEKFSNRSNICRFLTASQDKILFKDVNRKLSDVWKELSLLLQVEQRMPVSPISQGASWAQEDQQDADEDRRAFQMLRRDNEKIEASLRRLEINMKEIKETLRQYLPP
- stoichiometry N: 2
